The assay concerns the target AetD nitrile synthase (Aetokthonos hydrillicola). In words: SEC; Superdex 200 10/300 GL; 100 uL of 10 mg/mL AetD in 25 mM Tris-HCl pH 7.5, 150 mM NaCl; flow rate 0.2 mL/min; mass estimated from protein markers.

Consider “AetD nitrile synthase (from UniProt A0A861B387 1-239) (enzyme)”, for which the stoichiometry N was 2.

A word on the stoichiometry N: it is the number of molecules, sites or subunits per partner or assembly.

Source of the values: publication PMC10654658, “The structural and functional investigation into an unusual nitrile synthase” (Nature Communications, 2023).
